From publication PMC6818471

B1: GLUT9b: N61Q (protein)
parent chain: MKLSKKDRGEDEESDSAKKKLDWSCSLLVASLAGAFGSSFLYGYNLSVVNAPTPYIKAFYNESWERRHGRPIDPDTLTLLWSVTVSIFAIGGLVGTLIVKMIGKVLGRKHTLLANNGFAISAALLMACSLQAGAFEMLIVGRFIMGIDGGVALSVLPMYLSEISPKEIRGSLGQVTAIFICIGVFTGQLLGLPELLGKESTWPYLFGVIVVPAVVQLLSLPFLPDSPRYLLLEKHNEARAVKAFQTFLGKADVSQEVEEVLAESRVQRSIRLVSVLELLRAPYVRWQVVTVIVTMACYQLCGLNAIWFYTNSIFGKAGIPPAKIPYVTLSTGGIETLAAVFSGLVIEHLGRRPLLIGGFGLMGLFFGTLTITLTLQDHAPWVPYLSIVGILAIIASFCSGPGGIPFILTGEFFQQSQRPAAFIIAGTVNWLSNFAVGLLFPFIQKSLDTYCFLVFATICITGAIYLYFVLPETKNRTYAEISQAFSKRNKAYPPEEKIDSAVTDGKINGRP
B2: GLUT9a: N90Q (protein)
parent chain: MARKQNRNSKELGLVPLTDDTSHAGPPGPGRALLECDHLRSGVPGGRRRKDWSCSLLVASLAGAFGSSFLYGYNLSVVNAPTPYIKAFYNESWERRHGRPIDPDTLTLLWSVTVSIFAIGGLVGTLIVKMIGKVLGRKHTLLANNGFAISAALLMACSLQAGAFEMLIVGRFIMGIDGGVALSVLPMYLSEISPKEIRGSLGQVTAIFICIGVFTGQLLGLPELLGKESTWPYLFGVIVVPAVVQLLSLPFLPDSPRYLLLEKHNEARAVKAFQTFLGKADVSQEVEEVLAESRVQRSIRLVSVLELLRAPYVRWQVVTVIVTMACYQLCGLNAIWFYTNSIFGKAGIPPAKIPYVTLSTGGIETLAAVFSGLVIEHLGRRPLLIGGFGLMGLFFGTLTITLTLQDHAPWVPYLSIVGILAIIASFCSGPGGIPFILTGEFFQQSQRPAAFIIAGTVNWLSNFAVGLLFPFIQKSLDTYCFLVFATICITGAIYLYFVLPETKNRTYAEISQAFSKRNKAYPPEEKIDSAVTDGKINGRP

How the values were obtained:
[1] = [14C]-urate uptake, oocytes co-expressing ITM2B; conditions: glycan lost
[2] = [14C]-urate uptake, oocytes co-expressing TMEM85; conditions: glycan lost
[3] = [14C]-urate uptake, polarized or depolarized oocytes; conditions: glycan lost
[4] = confocal immunofluorescence, HEK 293T; conditions: glycan lost; control: wild type GLUT9b

Protein	other: inhibition of urate uptake by ITM2B, other: percent inhibition of uptake ([1]; control: wild type GLUT9b)	other: inhibition of urate uptake by TMEM85 ([2]; control: wild type GLUT9b)	other: transport activity ([3]; control: wild type GLUT9b)	localisation_or_trafficking [4]	other: inhibition of urate uptake by ITM2B, other: percent inhibition of uptake ([1]; control: wild type GLUT9a)	other: inhibition of urate uptake by TMEM85 ([2]; control: wild type GLUT9a)	other: transport activity ([3]; control: wild type GLUT9a)
B1	no change, ∼65–70 vs 65–70	no change	no change	no change			
B2					no change, ∼65–70 vs 65–70	no change	no change
